The target of this series is T1, VvWRKY5-HIS (Vitis vinifera, UniProt A0ABY9BGE3 8-330).
T1 sequence: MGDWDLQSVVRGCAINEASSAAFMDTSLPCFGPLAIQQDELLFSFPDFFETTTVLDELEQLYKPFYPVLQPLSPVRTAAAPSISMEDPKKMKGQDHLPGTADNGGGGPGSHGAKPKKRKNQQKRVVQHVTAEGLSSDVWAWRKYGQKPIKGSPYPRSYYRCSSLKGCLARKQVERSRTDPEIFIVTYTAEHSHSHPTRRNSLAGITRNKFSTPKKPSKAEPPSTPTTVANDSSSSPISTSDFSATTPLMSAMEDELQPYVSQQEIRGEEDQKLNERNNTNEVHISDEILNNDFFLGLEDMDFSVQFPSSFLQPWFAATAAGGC
The experiment in a line: EMSA; unlabeled cold probe competitor 100x/200x; LightShift Chemiluminescent EMSA Kit (Beyotime); buffer, salt, pH and temperature not stated. To be noted: protein: recombinant; tags: His (pET-32a(+) fusion); blunt.

The values below come from publication PMC10569242, “VvWRKY5 enhances white rot resistance in grape by promoting the jasmonic acid pathway”.

B1: VvMYC2 W-box probe (dsDNA)
DNA 1: TAGGGTGGGGATTTGACCTGGGTCTGGAGATTCG
DNA 2: CGAATCTCCAGACCCAGGTCAAATCCCCACCCTA
B1: the binding result was “binds”.

B2: VvJAZ2 W-box probe (dsDNA)
DNA 1: TAAATCCTCACATCGGGTCAAGGATCGAGTATGC
DNA 2: GCATACTCGATCCTTGACCCGATGTGAGGATTTA
As for B2, the binding result is “binds”.
